According to US20200085917A1 (UNIVERSITY OF PITTSBURGH OF THE COMMONWEALTH SYSTEM OF …, published 2020):

Biological target: T1, GST alone (UniProt P08515 1-218 = GST)
T1 construct: Negative control of the pull-downs; also called control GST
Experiment: GST pull-down, LC-MS/MS
Procedure: Extracts were spun at 14,000 r.p.m. at 4° C., and clarified supernatants were incubated with glutathione 4B Sepharose beads (GE Healthcare) at 4° C. overnight. The glutathione beads were then washed extensively with ice-cold TNE buffer, and bound proteins were subjected to SDS-PAGE followed by immunoblotting analysis. For the samples subjected to mass spectrometry, glutathione bead-bound proteins from equal amounts (600 μg) of mitochondria were further washed with high stringency RIPA buffer following TNE buffer wash to decrease nonspecific interaction. Proteins were then eluted from the glutathione beads in SDS sample buffer, separated by SDS-PAGE and stained with Coomassie. Proteins in the gel were digested with trypsin and analyzed by mass spectrometry (LC-MS/MS) at the Taplin Biological Mass Spectrometry Facility (Harvard Medical School, Boston, Mass.).

T1 sequence (P08515 whole entry): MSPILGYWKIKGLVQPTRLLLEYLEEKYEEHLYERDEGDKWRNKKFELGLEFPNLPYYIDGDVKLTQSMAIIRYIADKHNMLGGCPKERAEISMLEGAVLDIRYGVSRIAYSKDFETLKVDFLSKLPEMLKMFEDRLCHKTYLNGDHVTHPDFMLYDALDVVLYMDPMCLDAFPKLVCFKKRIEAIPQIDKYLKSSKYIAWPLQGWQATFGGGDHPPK

| Binder | binding result |
| --- | --- |
| Brp44_IPI:IPI00131896.1 (other, mouse, UniProt Q9D023 1-127, looked up) MAAAGARGLRATYHRLMDKVELLLPKKLRPLYNHPAGPRTVFFWAPIMKWGLVCAGLADMARPAEKLSTAQSTVLMATGFIWSRYSLVIIPKNWSLFAVNFFVGSAGASQLFRIWRYNQELKSKGIQ | no binding |
| Uqcrq_IPI:IPI00224210.5 (other, mouse, UniProt Q9CQ69 1-82, looked up) MGREFGNLARIRHVISYSLSPFEQRAFPSYFSKGIPNVLRRTRERILRVAPPFVVVYLIYTWGNQEFEQSKRKNPAMYENDK | no binding |
| Ppdpf_IPI:IPI00133078.1 (other, mouse, UniProt Q9CR37 1-115, looked up) MAAIPSSGSLVATHDYYRRRLGSSSSSSSGGSAEYPGDAVLQSPGLPKADPGHWWASFFFGKSTLPFMTTVLESPERSAESPQVSRSPMTCGLTPETMKQQPVIHSGQTNPRDLS | no binding |
| C1qbp_IPI:IPI00132799.4 (other, mouse, UniProt O35658 71-278, looked up) LHTEGDKAFVEFLTDEIKEEKKIQKHKSLPKMSGDWELEVNGTEAKLLRKVAGEKITVTFNINNSIPPTFDGEEEPSQGQKAEEQEPERTSTPNFVVEVTKTDGKKTLVLDCHYPEDEIGHEDEAESDIFSIKEVSFQATGDSEWRDTNYTLNTDSLDWALYDHLMDFLADRGVDNTFADELVELSTALEHQEYITFLEDLKSFVKNQ | no binding |
| Ndufa11_IPI:IPI00318645.6 (other, mouse, UniProt Q9D8B4 1-141, looked up) MVKRFFESYHEVPDGTQCHRKTYITTALGGICGIIGSAYRVSLNPADSTLEAVARVGRYTFTAAAIGAMFGLTTCVSAQVREKPDDPLNYFIGGCAGGLTLGARTHSYGTAAMGCVYMGTAAALFKIGKLEGWELFPTPKV | no binding |
| Rab2a_IPI:IPI00137227.1 (other, mouse, UniProt P53994 2-212, looked up) AYAYLFKYIIIGDTGVGKSCLLLQFTDKRFQPVHDLTIGVEFGARMITIDGKQIKLQIWDTAGQESFRSITRSYYRGAAGALLVYDITRRDTFNHLTTWLEDARQHSNSNMVIMLIGNKSDLESRREVKKEEGEAFAREHGLIFMETSAKTASNVEEAFINTAKEIYEKIQEGVFDINNEANGIKIGPQHAATNASHGSNQGGQQAGGGCC | no binding |
| Mrps33_IPI:IPI00135214.1 (other, mouse, UniProt Q9D2R8 2-106, looked up) SPLSEYALRMSRLSARIFGEVARSTDSKSMKVVSLFSEQPLAKKKETYDWYPNHNTYFALMGNLRFLGLYRDEHQDFKDEQRRLKKLRGKGKPRKGEGKRATKKK | no binding |
| Tomm20_IPI:IPI00120715.1 (other, mouse, UniProt Q9DCC8 1-145, looked up) MVGRNSAIAAGVCGALFIGYCIYFDRKRRSDPNFKNRLRERRKKQKLAKERAGLSKLPDLKDAEAVQKFFLEEIQLGEELLAQGDYEKGVDHLTNAIAVCGQPQQLLQVLQQTLPPPVFQMLLTKLPTISQRIVSAQSLAEDDVE | no binding |
| Rab5b_IPI:IPI00116563.2 (other, mouse, UniProt P61021 2-215, looked up) TSRSTARPNGQPQASKICQFKLVLLGESAVGKSSLVLRFVKGQFHEYQESTIGAAFLTQSVCLDDTTVKFEIWDTAGQERYHSLAPMYYRGAQAAIVVYDITNQETFARAKTWVKELQRQASPSIVIALAGNKADLANKRMVEYEEAQAYADDNSLLFMETSAKTAMNVNDLFLAIAKKLPKSEPQNLGGAAGRSRGVDLHEQSQQNKSQCCSN | no binding |
| Iscu_IPI:IPI00110578.1 (other, mouse, UniProt Q9D7P6 36-168, looked up) YHKKVVDHYENPRNVGSLDKTSKNVGTGLVGAPACGDVMKLQIQVDEKGKIVDARFKTFGCGSAIASSSLATEWVKGKTVEEALTIKNTDIAKELCLPPVKLHCSMLAEDAIKAALADYKLKQESKKEEPEKQ | no binding |
| Tim23 (endogenous, mouse forebrain mitochondria) (other, UniProt Q9WTQ8 1-209, looked up, also called Timm23_IPI:IPI00123712.1; Tim23 subunit) MEGGGRSSNKSTSGLAGFFGAGGAGYSNADLAGVPLTGMNPLSPYLNVDPRYLVQDTDEFILPTGANKTRGRFELAFFTIGGCCMTGAAFGAMNGLRLGLKETQSMAWSKPRNVQILNMVTRQGALWANTLGSLALLYSAFGVIIEKTRGAEDDLNTVAAGTMTGMLYKCTGGLRGIARGGLAGLTLTSLYALYNNWVHMKGSLLQQSL | no binding |
| Pfn2_IPI:IPI00227805.6 (other, mouse, UniProt Q9JJV2 2-140, looked up) AGWQSYVDNLMCDGCCQEAAIVGYCDAKYVWAATAGGVFQSITPVEIDMIVGKDREGFFTNGLTLGAKKCSVIRDSLYVDGDCTMDIRTKSQGGEPTYNVAVGRAGRVLVFVMGKEGVHGGGLNKKAYSMAKYLRDSGF | no binding |
| Synj2bp_IPI:IPI00109206.1 (other, mouse, UniProt Q9D6K5 1-145, looked up) MNGRVDYLVTEEEINLTRGPSGLGFNIVGGTDQQYVSNDSGIYVSRIKEDGAAAQDGRLQEGDKILSVNGQDLKNLLHQDAVDLFRNAGCAVSLRVQHRLPVQNGPIVHRGEGEPSGVPVAMVLLPVFALTMVAVWAFVRYRKQL | no binding |
| Cplx2_IPI:IPI00111501.1 (other, mouse, UniProt P84086 1-134, looked up) MDFVMKQALGGATKDMGKMLGGEEEKDPDAQKKEEERQEALRQQEEERKAKHARMEAEREKVRQQIRDKYGLKKKEEKEAEEKAALEQPCEGSLTRPKKAIPAGCGDEEEEEEESILDTVLKYLPGPLQDMFKK | no binding |
| Fahd1_IPI:IPI00468850.1 (other, mouse, UniProt Q8R0F8 25-221, looked up) ADHVKEMRSTVLSEPVLFLKPSTAYAPEGSPVLMPAYCRNLHHEVELGVLLGKRGEAIPEAAAMDYVAGYALCLDMTARDVQEECKKKGLPWTLAKSFTSSCPVSAFVPKEKIPDPHALRLWLKVNGELRQEGKTSSMIFSIPYIISYVSKIITLEEGDLILTGTPKGVGPIKENDEIEAGIDGVVSMRFKVKRSEY | no binding |
| Fabp5_IPI:IPI00114162.3 (other, mouse, UniProt Q05816 2-135, looked up) ASLKDLEGKWRLMESHGFEEYMKELGVGLALRKMAAMAKPDCIITCDGNNITVKTESTVKTTVFSCNLGEKFDETTADGRKTETVCTFQDGALVQHQQWDGKESTITRKLKDGKMIVECVMNNATCTRVYEKVQ | no binding |
| Mrpl14_IPI:IPI00133778.1 (other, mouse, UniProt Q9D1I6 31-145, looked up) AVQKMTRVRVVDNSALGSTPYHRPPRCIHVYNKSGVGKVGDQILLAIRGQKKKALIVGHRMPGSRMTPKFDSNNVVLIEDNGNPVGTRIKIPIPTSLRRREGEYSKVLAIAQNFV | no binding |
| Hint2_IPI:IPI00133034.3 (other, mouse, UniProt Q9D0S9 18-163, looked up) LAAAGARGAQVRGNAGVSDGSEVAKAQKAAPGGASPTIFSRILDRSLPADILYEDQQCLVFRDVAPQAPVHFLVIPRKPIPRISQAEEDDQQLLGHLLLVAKKIAQAQGLKDGYRLVVNDGKMGAQSVYHLHIHVLGGRQLQWPPG | no binding |

Now from value to binder:

| binding result | Binder |
| --- | --- |
| no binding | Uqcrb_IPI:IPI00132347.1 (other, mouse, UniProt Q9D855 2-111, looked up) AGRSAVSASSKWLDGFRKWYYNAAGFNKLGLMRDDTLHETEDVKEAIRRLPEDLYNDRMLRIKRALDLTMRHQILPKDQWTKYEEDKFYLEPYLKEVIRERKEREEWAKK |
| no binding | Chchd4_IPI:IPI00124389.1 (other, mouse, UniProt Q8VEA4 1-139, looked up) MSYCRQEGKDRIIFVTKEDHETPSSAELVADDPNDPYEEHGLILPNGDINWNCPCLGGMASGPCGEQFKSAFSCFHYSTEDIKGSDCIDQFRAMQECMQKYPDLYPQDEEEEEEAKPVEPVEETADTKVSAAKEQGTSS |
| no binding | Mrpl43_IPI:IPI00278781.1 (other, mouse, UniProt Q99N89 1-183, looked up) MTGRGTSSRFLTSVLHNGLGRYVQQLQRLSLSLSRDAPSSRGAREFVEREVTDFARRNPGVVVYVNPRPCAMPRIVAEYLNGAVREENVNSKSVEEIKSLVQKLADQSGLDVIRIRKPFHTDNPSIQGQWTPSPTNGLPSTGCGPENSGILLQLRCKHSKEPGALDRERDRIGSSFGFQAQAE |
| no binding | Cplx1_IPI:IPI00132278.1 (other, mouse, UniProt P63040 1-134, looked up) MEFVMKQALGGATKDMGKMLGGDEEKDPDAAKKEEERQEALRQAEEERKAKYAKMEAEREVMRQGIRDKYGIKKKEEREAEAQAAMEANSEGSLTRPKKAIPPGCGDEPEEEDESILDTVIKYLPGPLQDMFKK |
| no binding | Cisd3_IPI:IPI00345740.4 (other, mouse, UniProt B1AR13 1-137, looked up) MGFRRLSFPTDFIFLFPNHICLPALSKPYQRREISSWLARWFPKDPAKPVVAQKTPIRLELVAGKTYRWCVCGRSKNQPFCDGSHFFQRTGLSPLKFKAQETRTVALCTCKATQRPPYCDGTHKSEQVQKAEVGSPL |
| no binding | Lyrm4_IPI:IPI00169804.1 (other, mouse, UniProt Q8K215 1-91, looked up) MAASSRAQVLDLYRAMMRESKHFSAYNYRMYAVRRIRDAFRENKNVKDPVEIQALVNKAKRDLEIIRRQVHIGQLYSTDKLIIENQEKPRT |
| no binding | Atp5f1_IPI:IPI00341282.2 (other, mouse, UniProt Q9CQQ7 43-256, looked up) PLPPLPEYGGKVRLGLIPEEFFQFLYPKTGVTGPYVLGTGLSLYFLSKEIYVITPETFSTISVVGLIVYVIKKYGASFGEFIDKLNEEKIAQLEEVKQSSMKQIQDAIDMEKAQQALVQKRHYLFDVQRNNIALALEVTYRERLHKAYKEVKNRLDYHISVQNMMRRKEEEHMIDWVEKHVVKSISVQQEKETIAKCIEDLKLLAKKAQAQPIM |
| no binding | Rab15_IPI:IPI00170032.1 (other, Natural C-terminal geranylgeranylation of the cysteines (CWC motif) in the endogenous protein is not carried by the letters.) MAKQYDVLFRLLLIGDSGVGKTCLLCRFTDNEFHSSHISTIGVDFKMKTIDVDGIKVRIQIWDTAGQERYQTITKQYYRRAQGIFLVYDISSERSYQHIMKWVSDVDEYAPEGVQKILIGNKADEEQKRQVGREQGQQLAKEYGMDFYETSACTNLNIKESFTRLTELVLQAHRKELDGLRTRASNELALAELEEDEGKPEGPANSSKTCWC |
| no binding | Lyrm7_IPI:IPI00117832.1 (other, mouse, UniProt Q9DA03 1-104, looked up) MGQPAKVLQLFKTLHRTRQQVFKNDKRALEAARVKINEEFKKHKNETSPEKIKEMMKLGSDVELLLRTAVIQGIHTDHDTLQLVPRKDLLTENVPYCDAPTQKQ |
